Substitutions are numbered along the chain they refer to. Values belong to the binder of their own block, whether it stands above or below them.
Legend:
人IL33-his重组蛋白 [1] = biological target: T1, 人IL33-his重组蛋白 (human, UniProt O95760 112-270); experiment: BLI (ForteBio), Example 3
T1 construct: range 112-270; also called human IL-33; not shown: his tag
T1 sequence (looked up): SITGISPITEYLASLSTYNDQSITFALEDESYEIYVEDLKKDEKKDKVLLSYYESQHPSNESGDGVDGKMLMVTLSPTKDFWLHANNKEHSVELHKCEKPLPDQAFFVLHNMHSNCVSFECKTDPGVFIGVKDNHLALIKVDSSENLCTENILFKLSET

hIL-33WT = biological target: T2, hIL-33WT (human, UniProt O95760 112-270, limits assumed); experiment: cell-based or functional assay
T2 sequence (looked up): T1 sequence (looked up)

人IL33-his重组蛋白 [2] = biological target: T1, 人IL33-his重组蛋白; experiment: BLI (ForteBio), antibody captured on AHC probe, IL33-his 15-60 nM in solution, 1:1 fit

B2: ANB020 (antibody, V domains shown)
VH: QVQLMQSGAEVKKPGASVKVSCKASGYTFTSYWMHWVRQAPGQGLEWMGTIYPRNSNTDYNQKFKARVTMTRDTSTSTVYMELSSLRSEDTAVYYCARPLYYYLTSPPTLFWGQGTLVTVSS
VL: DIQLTQSPSFLSASVGDRVTLTCKASQDVGTAVAWTQQKPGKAPKLLIYWASTRHTGVPSRFSGSGSGTEFTLTISSLQPEDFATYYCQQAKTYPFTFGSGTKLEIK
notes: The variable regions were cloned into vectors holding human IgG1 light and heavy chain constant regions; also called 对照抗体ANB020; 对照抗体
Kd (人IL33-his重组蛋白 [2]): 6700 pM
koff (人IL33-his重组蛋白 [2]): 0.000419 s⁻¹
kon (人IL33-his重组蛋白 [2]): 62500 M⁻¹ s⁻¹
IC50 of inhibition of IL-33-stimulated IL-5 production by KU812 cells (hIL-33WT): 5.82 µg/mL

B3: ch25D8 (antibody, human IgG1, kappa, V domains shown)
VH: QVQLQQSGTELVKPGASVKLSCKTSGYTFTSYWIQWVKQRPGQGLGWIGEIFPGTGTTYYNEKFKGKATLTTDTSSTTAYMQLSSLTSEDSAVYFCARRIRDYYGSNYFDYWGQGTTLTVSS
VL: QIVLTQSPAIMSASPGEKVTITCSASSSVSYMHWFQQKPGTSPKLWIYRTSNLASGVPDRFSGSGSGTSYSLTISRMEAEDAATYYCLQRSTYLFMFGAGTKLELKR
notes: also called 嵌合抗体ch25D8; 25D8分子的嵌合抗体
Kd (人IL33-his重组蛋白 [2]): 900 pM
koff (人IL33-his重组蛋白 [2]): 7.53e-05 s⁻¹
kon (人IL33-his重组蛋白 [2]): 83600 M⁻¹ s⁻¹
Kd (人IL33-his重组蛋白 [1]): 617 pM
koff (人IL33-his重组蛋白 [1]): 0.000472 s⁻¹
kon (人IL33-his重组蛋白 [1]): 766000 M⁻¹ s⁻¹

The remaining lines, values ahead:

Kd (人IL33-his重组蛋白 [1]): 610 pM
koff (人IL33-his重组蛋白 [1]): 0.000366 s⁻¹
kon (人IL33-his重组蛋白 [1]): 600000 M⁻¹ s⁻¹
IC50 of inhibition of IL-33-stimulated IL-5 production by KU812 cells (hIL-33WT): 0.677 µg/mL
B1: h25D8H1L1 (antibody, human IgG1, kappa, V domains shown)
VH: QVQLVQSGAEVKKPGASVKLSCKTSGYTFTSYWIQWVRQAPGQGLEWIGEIFPGTGTTYYNQKFQGRATLTTDTSTTTAYMELSSLRSEDTAVYFCARRIRDYYGSNYFDYWGQGTTLTVSS
VL: DIQLTQSPSSMSASVGDRVTITCRASSSVSYMHWFQQKPGKAPKLWIYRTSNLQSGVPSRFSGSGSGTDYTLTISSMQPEDFATYYCLQRSTYLFMFGQGTKLELKR
notes: also called 人源化抗体h25D8H1L1; hzVH1/hzVL1

Kd (人IL33-his重组蛋白 [2]): 77700 pM
koff (人IL33-his重组蛋白 [2]): 0.000619 s⁻¹
kon (人IL33-his重组蛋白 [2]): 7970 M⁻¹ s⁻¹
B4: ch25H12 (antibody, human IgG1, kappa, V domains shown)
VH: EVQLQQSGAELVKPGASVKLSCTASGFNIKDTYIHWVKQRPEQGLEWIGRIDPTADNTKYHPKFQGKATLTADTSSNTAYLQLSSLTSEDTAVYFCARGSSYALDYWGQGTSVTVSS
VL: B3 VL with L88Q, T92S
notes: Human-mouse chimeric IgG1/kappa expressed in HEK293 and purified on Protein A; also called 嵌合抗体ch25H12

From CN114395042A (BEIJING COONOXIN ZONGCHENG SCIENCE AND TECH CO, dated 2022)
